Laboratory results taken from patent US20260258125A1 (NONA BIOSCIENCES SUZHOU, published 2026).

T1: human CEACAM6 on 293T cells (293T-huCEACAM6 cells) (human, UniProt P40199 35-320)
T1 construct: whole, on cells
T1 sequence (looked up): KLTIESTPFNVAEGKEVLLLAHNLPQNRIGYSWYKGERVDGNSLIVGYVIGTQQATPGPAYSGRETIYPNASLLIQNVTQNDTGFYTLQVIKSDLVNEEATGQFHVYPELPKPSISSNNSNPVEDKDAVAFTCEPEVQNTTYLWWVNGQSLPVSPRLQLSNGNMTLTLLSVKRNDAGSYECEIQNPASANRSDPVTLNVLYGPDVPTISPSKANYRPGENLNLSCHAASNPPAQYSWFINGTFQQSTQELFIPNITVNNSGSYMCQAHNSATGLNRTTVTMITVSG

T2: human CEACAM3 protein (human, UniProt P40198 35-155)
T2 construct: Bought protein; also called huCEACAM3
T2 sequence (looked up): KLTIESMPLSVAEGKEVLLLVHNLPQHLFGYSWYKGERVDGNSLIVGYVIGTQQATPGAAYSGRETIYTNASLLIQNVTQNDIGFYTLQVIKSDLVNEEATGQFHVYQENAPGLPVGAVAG

T3: human CEACAM5 on 293T cells (293T-huCEACAM5 cells) (human, UniProt P06731 35-685)
T3 construct: whole, on cells
T3 sequence (looked up): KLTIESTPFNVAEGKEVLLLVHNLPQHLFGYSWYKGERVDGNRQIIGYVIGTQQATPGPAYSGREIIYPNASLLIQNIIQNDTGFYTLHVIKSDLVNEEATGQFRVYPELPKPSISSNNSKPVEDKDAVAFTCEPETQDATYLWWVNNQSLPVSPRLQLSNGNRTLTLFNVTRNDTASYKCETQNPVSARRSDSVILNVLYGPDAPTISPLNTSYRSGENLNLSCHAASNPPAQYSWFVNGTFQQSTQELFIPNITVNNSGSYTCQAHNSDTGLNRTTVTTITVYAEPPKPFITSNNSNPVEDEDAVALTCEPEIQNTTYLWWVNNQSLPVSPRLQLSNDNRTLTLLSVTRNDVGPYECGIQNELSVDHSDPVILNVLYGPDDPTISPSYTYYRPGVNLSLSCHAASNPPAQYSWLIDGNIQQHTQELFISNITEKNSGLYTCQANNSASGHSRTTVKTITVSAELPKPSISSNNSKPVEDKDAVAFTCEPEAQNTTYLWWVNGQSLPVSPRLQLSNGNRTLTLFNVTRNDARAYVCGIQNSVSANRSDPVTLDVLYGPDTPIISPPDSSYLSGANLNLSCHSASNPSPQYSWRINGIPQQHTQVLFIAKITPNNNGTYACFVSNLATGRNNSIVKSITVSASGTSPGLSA

T4: human CEACAM8 protein (human, UniProt P31997 35-320)
T4 construct: Bought protein; also called huCEACAM8
T4 sequence (looked up): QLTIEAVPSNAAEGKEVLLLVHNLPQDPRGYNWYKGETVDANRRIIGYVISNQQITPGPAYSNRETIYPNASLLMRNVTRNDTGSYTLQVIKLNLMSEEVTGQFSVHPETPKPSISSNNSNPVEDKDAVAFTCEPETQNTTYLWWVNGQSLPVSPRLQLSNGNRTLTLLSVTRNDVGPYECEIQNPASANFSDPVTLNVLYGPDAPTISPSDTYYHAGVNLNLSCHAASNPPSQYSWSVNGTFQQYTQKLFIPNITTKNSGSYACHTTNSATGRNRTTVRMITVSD


Assays:
[1] = biological target: T1, human CEACAM6 on 293T cells …; test: flow cytometry on 293T-huCEACAM6 cells with against without 100 nM soluble CEACAM6
human CEACAM3 protein [2] = biological target: T2, human CEACAM3 protein; test: ELISA, human CEACAM3 protein coated on the plate, anti-human Fc-HRP, OD450
From the text: (§1) Binding of recombinant anti-CEACAM5/6 dual-binding monoclonal antibodies against human and cynomolgus CEACAM5, and human CEACAM6 (Uniprot P40199), human CEACAM 1, 3 (NP_001806.2, Sino Biological 11933-H08H) and 8 (NP_001807.2, Acro Bio CE8-H5224) were detected by ELISA. Anti-CEACAM5/6 dual-antibodies were serially diluted in staining buffer (PBS containing 2% FBS). […] ELISA was used to test the binding between antibody containing supernatant or purified antibodies and the antigen. Briefly, the antigens were coated on a 96-well high binding plate overnight at 4° C. The plate was washed with PBST three times, incubated with blocking buffer (2% Bovine Serum Albumin) for one hour at 37° C., washed with PBST three times and incubated with antibody containing supernatant or purified antibodies at desired dilutions or concentrations for one hour at 37° C. A secondary antibody, anti-human Fc-HRP (Jackson Laboratory, 109-035-097) was used for detection of the targeted antibody. TMB and stopping solution were used for detection of HRP signal. The HRP signal was read on a SPECTRAMAX plate reader.

[3] = biological target: T3, human CEACAM5 on 293T cells …; test: flow cytometry on 293T-huCEACAM5 cells with against without 100 nM soluble CEACAM5
human CEACAM8 protein [4] = biological target: T4, human CEACAM8 protein; test: ELISA, human CEACAM8 protein coated on the plate, anti-human Fc-HRP, OD450
From the text: as §1

human CEACAM8 protein [5] = biological target: T4, human CEACAM8 protein; test: ELISA, antigen coated on plate
From the text: as §1

human CEACAM3 protein [6] = biological target: T2, human CEACAM3 protein; test: ELISA, antigen coated on plate
From the text: as §1

Binder | fold change of EC50 at the presence of 100 nM soluble protein [1] | binding result (human CEACAM3 protein [2]) | fold change of EC50 at the presence of 100 nM soluble protein [3] | binding result (human CEACAM8 protein [4]) | binding result (human CEACAM8 protein [5]) | binding result (human CEACAM3 protein [6])
PR304294 (antibody, human IgG1, kappa, V domains shown, Recombinant full antibody) VH: EVQLLESGGGLVQPGGSLRLSCAASGFTFSSYAMSWVRQAPGKGLEWVSAISGTTYNTYYAGSVKGRFTISRDNSKNTLYLQMNSLRAEDTAVYYCAKGISVAGYYYYGMDVWGQGTTVTVSS VL: EIVMTQSPATLSVSPGERATLSCRASQSVISNLAWYQQKPGQAPRLLIYGASTRATGIPARFSGSGSGTEFTLTISSLQSEDFAVYYCHQYNNWPLTFGGGTKVEIKR | 2.1 fold | no binding (tested: 100 nM) | 4.1 fold | no binding (tested: 10 nM) | – | –
PR304171 (antibody, human IgG1, kappa, V domains shown, Recombinant full antibody) VH: not shown VL: EIVMTQSPATLSVSPGERATLSCRASQNVISNLAWHQQKPGQAPRLLIYTTSTRATGIPARFSGSGSGTEFTLTISSLQSEDFAVYYCQQYNNWPLTFGGGTKVEIKR | – | – | – | – | no binding | no binding
